94 variants from the supplement of paper PMC10567573 can be followed below.

Sequences and labels used below:
B1: KCTD10 (parent)
chain: SSKEEQKLIATSNKPAVKLLYNRS
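Further: lentivirally expressed fusions sorted by FACS into six bins by GFP to DsRed ratio, PSI derived from sequencing read proportions per bin multiplied by bin number.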

The data set covers variants of B1. Put plainly: protein stability index of a GFP-peptide fusion (GPS, HEK-293T) (PSI 1-6); higher = more stable. The following applies: c terminus: a fixed tail appended.
For the variant SSKEEQRLIATSNKPAVKLLYNRS [K7R], the protein stability index stood at 3.92.
Turning to SSKEEQCLIATSNKPAVKLLYNRS [K7C], the protein stability index came out at 3.86.
As for SSKEEQKLIATSNKPAVKLLWNRS [Y21W], the protein stability index was 4.05.
Under SSKEEQKLIATSNKPAVKLLPNRS [Y21P] stands 4.07; under SSKEEQKLIATSNKPAVKLLCNRS [Y21C], 4.73; under SSKEEQKLIATSNKPAVKLLHNRS [Y21H], 4.46.
Next, SSKEEQKLIATSNKPAVKLLINRS [Y21I]: 4.13; SSKEEQKLIATSNKPAVKLLSNRS [Y21S]: 4.33; SSKEEQKLIATSNKPAVKLLDNRS [Y21D]: 4.93.
Regarding SSKEEQKLIATSNPPAVKLLYNRS [K14P], the protein stability index turned out to be 4.32.
Next, SSKEEQKLIATSNMPAVKLLYNRS [K14M]: 3.76; SSKEEQKLIATSNYPAVKLLYNRS [K14Y]: 3.46.
Under SSKEEQKLIATSNLPAVKLLYNRS [K14L] stands 3.8; under SSKEEQKLIATANKPAVKLLYNRS [S12A], 3.89.
Next, SSKEEQKLIATRNKPAVKLLYNRS [S12R]: 4.02; SSKEEQKLIATGNKPAVKLLYNRS [S12G]: 3.89; SSKEEQKLIATTNKPAVKLLYNRS [S12T]: 4.34.
As for SSKEEQKLIATSNKPAVYLLYNRS [K18Y], the protein stability index turned out to be 3.03.
Next, SSKEEQKLIATSNKPAVMLLYNRS [K18M]: 3.45.
For SSKTEQKLIATSNKPAVKLLYNRS [E4T], the protein stability index was 3.26.
Next, SSKEEQKLIATSAKPAVKLLYNRS [N13A]: 3.58; SSKEEQKLIATSFKPAVKLLYNRS [N13F]: 3.16.
SSKEEQKLIATSTKPAVKLLYNRS [N13T]: the protein stability index stood at 4.
Next, SSKEEQKLIATSCKPAVKLLYNRS [N13C]: 2.31; SSKEEQKLIATSRKPAVKLLYNRS [N13R]: 3.33; SSKEEQKLIATSEKPAVKLLYNRS [N13E]: 4.54.
Under SSKEEQKLIATSVKPAVKLLYNRS [N13V] stands 3.75; under SSKEEQKLIATSNKPGVKLLYNRS [A16G], 3.79; under SSKEEQKLIATSNKPIVKLLYNRS [A16I], 3.97.
Next, SSKEEQKLIATSNKPKVKLLYNRS [A16K]: 4.33; SSKEEQKLIATSNKPSVKLLYNRS [A16S]: 4.2; DSKEEQKLIATSNKPAVKLLYNRS [S1D]: 3.9.
With NSKEEQKLIATSNKPAVKLLYNRS [S1N], the protein stability index amounted to 4.32.
Next, VSKEEQKLIATSNKPAVKLLYNRS [S1V]: 3.84; FSKEEQKLIATSNKPAVKLLYNRS [S1F]: 3.6.
Under GSKEEQKLIATSNKPAVKLLYNRS [S1G] stands 3.96.
Next, QSKEEQKLIATSNKPAVKLLYNRS [S1Q]: 4.22.
In the case of RSKEEQKLIATSNKPAVKLLYNRS [S1R], the protein stability index is 3.8.
Next, SSKEEQKLIATSNKEAVKLLYNRS [P15E]: 4.53; SSKEEQKLIATSNKNAVKLLYNRS [P15N]: 4.08.
For SSKEEQKLIATSNKQAVKLLYNRS [P15Q], the protein stability index was 3.96.
Under SSKEEQKLIATSNKDAVKLLYNRS [P15D] stands 4.2; under SSKEEQKLIATSNKPAWKLLYNRS [V17W], 3.39; under SSKEEQKLIATSNKPANKLLYNRS [V17N], 4.76.
Next, SSKEEQKLIATSNKPAAKLLYNRS [V17A]: 4.34.
SSKEEQKLIATSNKPAGKLLYNRS [V17G]: the protein stability index is 4.3.
Next, SSHEEQKLIATSNKPAVKLLYNRS [K3H]: 4.23.
Under SSGEEQKLIATSNKPAVKLLYNRS [K3G] stands 3.32; under SSDEEQKLIATSNKPAVKLLYNRS [K3D], 4.5.
As to SSKEEQKIIATSNKPAVKLLYNRS [L8I], the protein stability index is 4.32.
Under SSKEEQKNIATSNKPAVKLLYNRS [L8N] stands 4.31; under SSKEEQKKIATSNKPAVKLLYNRS [L8K], 4.75; under SSKEEQKMIATSNKPAVKLLYNRS [L8M], 4.43.
On to SSKEEQKYIATSNKPAVKLLYNRS [L8Y], for which the protein stability index was found to be 4.02.
Under SSKEEQKGIATSNKPAVKLLYNRS [L8G] stands 4.51.
On to SSKEEQKLIATSNKPAVKWLYNRS [L19W], for which the protein stability index is 3.35.
SSKEEQKLIATSNKPAVKHLYNRS [L19H]: the protein stability index was determined as 4.41.
Under SSKEEQKLIATSNKPAVKALYNRS [L19A] stands 4.59.
Under SSKEEQKLIAWSNKPAVKLLYNRS [T11W] stands 3.35; under SSKEEQKLIAHSNKPAVKLLYNRS [T11H], 3.94; under SSKEEQKLIAGSNKPAVKLLYNRS [T11G], 4.16.
Under SSKEEQKLIARSNKPAVKLLYNRS [T11R] stands 3.37; under SSKEEQKLIAYSNKPAVKLLYNRS [T11Y], 3.6; under SSKEEQKLIATSNKPAVKLLYNRC [S24C], 3.25.
As for SSKEEQKLIATSNKPAVKLLYNRT [S24T], the protein stability index was determined as 4.21.
Consider SSKEEQKLIATSNKPAVKLLYNRK [S24K], for which the protein stability index is 4.7.
Under SSKEEQKLIATSNKPAVKLLYNRN [S24N] stands 4.2.
Under SSKEEQKLIATSNKPAVKLLYNRA [S24A] stands 3.65.
For the variant SSKEEQKLIATSNKPAVKLLYNRQ [S24Q], the protein stability index worked out at 4.17.
Under SSKEEQKLIATSNKPAVKLLYNCS [R23C] stands 3.76.
Under SSKEEQKLIATSNKPAVKLLYNWS [R23W] stands 3.15; under SSKEEQKLIATSNKPAVKLLYNQS [R23Q], 4.01; under SSKEEQKLIWTSNKPAVKLLYNRS [A10W], 3.51.
Next, SSKEEQKLIETSNKPAVKLLYNRS [A10E]: 4.51; SSKEEQKLILTSNKPAVKLLYNRS [A10L]: 3.73; SSKEEQKLIDTSNKPAVKLLYNRS [A10D]: 3.78.
For the variant SSKEEQKLPATSNKPAVKLLYNRS [I9P], the protein stability index turned out to be 4.69.
Under SSKEEQKLQATSNKPAVKLLYNRS [I9Q] stands 4.31; under SSKEEQKLTATSNKPAVKLLYNRS [I9T], 4.18.
Next, SSKEEQKLYATSNKPAVKLLYNRS [I9Y]: 4.41; SIKEEQKLIATSNKPAVKLLYNRS [S2I]: 3.88.
As to SSKEEVKLIATSNKPAVKLLYNRS [Q6V], the protein stability index was determined as 3.6.
Regarding SSKEEKKLIATSNKPAVKLLYNRS [Q6K], the protein stability index was 3.1.
Next, SSKEEGKLIATSNKPAVKLLYNRS [Q6G]: 3.8; SSKEESKLIATSNKPAVKLLYNRS [Q6S]: 3.86; SSKEEWKLIATSNKPAVKLLYNRS [Q6W]: 2.79.
Under SSKEEHKLIATSNKPAVKLLYNRS [Q6H] stands 4.08; under SSKEEQKLIATSNKPAVKLLYSRS [N22S], 3.41; under SSKEEQKLIATSNKPAVKLLYCRS [N22C], 3.7.
Next, SSKEEQKLIATSNKPAVKLDYNRS [L20D]: 4.53.
SSKEEQKLIATSNKPAVKLTYNRS [L20T]: the protein stability index amounted to 4.72.
Under SSKEEQKLIATSNKPAVKLRYNRS [L20R] stands 4.46.
Next, SSKEEQKLIATSNKPAVKLVYNRS [L20V]: 4.09.
Next, SSKEEQKLIATSNKPAVKLPYNRS [L20P]: 4.98.
